Test [1] addresses T1, mouse CD40 (mouse, UniProt P27512 20-193, limits assumed).
T1 construct: also called murine CD40
T1 sequence (looked up): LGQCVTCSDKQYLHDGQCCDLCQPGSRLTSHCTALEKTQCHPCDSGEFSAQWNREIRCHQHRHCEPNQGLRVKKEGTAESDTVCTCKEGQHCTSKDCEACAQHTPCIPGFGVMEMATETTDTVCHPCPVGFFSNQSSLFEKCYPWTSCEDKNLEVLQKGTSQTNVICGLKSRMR
The test can be described thus: CD40 binding, format not stated.

In test [2] the target is T2, soluble form of the extracellular domain of human CD40 (Creative BioMart) (human, UniProt P25942 21-193).
T2 construct: Bought
The test can be described thus: SPR.

For test [3], the target named is T3, cynomolgus mesothelin (cynomolgus).
T3 construct: also called cynoMSLN; Cyno MSLN
The test can be described thus: SPR. (In general: SPR reads the build-up and loss of mass on a sensor chip optically.)

The target of test [4] is T4, soluble form of the extracellular domain of cynomolgus (cyno) CD40 (Creative BioMart) (cynomolgus, UniProt G7PG38 21-193).
T4 construct: extracellular domain; also called Cynomolgus CD40
Put plainly: SPR.

Test [5] has as its target T5, human mesothelin (human, UniProt Q13421 296-580, limits assumed).
T5 construct: also called Human MSLN
Put plainly: SPR.

The target in test [6] is T2, soluble form of the extracellular …. Put plainly: SPR. The source holds these as a separate data set.
The target in test [7] is T5, human mesothelin. The test can be described thus: SPR. This is another data set of the same source.
In test [8] the target is T3, cynomolgus mesothelin. The test can be described thus: SPR. This is another data set of the same source.
Test [9] addresses T4, soluble form of the extracellular …. Put plainly: SPR, fast kinetics.
For test [10], the target named is T6, human CD40 on cells (HEK293 stable transfectants, HEK-Blue CD40 cells, human B cells, monocytic cells, … (human, UniProt P25942 21-277)). Put plainly: cell-based or functional assay.
For test [11], the target named is T4, soluble form of the extracellular …. Put plainly: SPR. This is another data set of the same source.
In test [12] the target is T6, human CD40 on cells (HEK293 stable …). Put plainly: cell-based or functional assay. The source holds these as a separate data set.
The target is the same in test [13]. Put plainly: CD40 occupancy on B cells, -MSLN (n = 3).
The target in another test is T7, MSLN (Table 10-1).
T7 chain: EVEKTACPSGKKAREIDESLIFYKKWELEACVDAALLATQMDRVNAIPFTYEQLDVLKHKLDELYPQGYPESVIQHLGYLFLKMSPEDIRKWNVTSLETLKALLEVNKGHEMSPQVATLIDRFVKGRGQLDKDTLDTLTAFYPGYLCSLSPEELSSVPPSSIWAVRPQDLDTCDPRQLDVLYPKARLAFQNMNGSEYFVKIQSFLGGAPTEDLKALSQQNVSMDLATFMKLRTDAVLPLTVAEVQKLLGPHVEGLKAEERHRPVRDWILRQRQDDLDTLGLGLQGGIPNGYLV
The test can be described thus: MSLN binding, format not stated.

Test [14] addresses T1, mouse CD40. The test can be described thus: FACS.
Another test deals with T8, dog CD40 (dog, UniProt Q7YRL5 21-194, limits assumed).
T8 sequence (looked up): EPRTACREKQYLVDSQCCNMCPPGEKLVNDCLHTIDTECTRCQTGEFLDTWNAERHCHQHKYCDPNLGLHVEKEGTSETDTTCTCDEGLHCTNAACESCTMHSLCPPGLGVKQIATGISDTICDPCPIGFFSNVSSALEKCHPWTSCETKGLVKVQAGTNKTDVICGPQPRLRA
The test can be described thus: FACS.

The target of test [15] is T6, human CD40 on cells (HEK293 stable …). Put plainly: FACS, HEK293 transfectants. (A flow cytometer gives signals particle by particle.)

Read-outs that look alike come from different tables or passages of the source. A value given as a limit tells only on which side of the number the result lay.

The text below walks through data of US20180194862A1 (AbbVie / Abbott, published 2018).

T2 sequence (P25942 21-193 limits assumed): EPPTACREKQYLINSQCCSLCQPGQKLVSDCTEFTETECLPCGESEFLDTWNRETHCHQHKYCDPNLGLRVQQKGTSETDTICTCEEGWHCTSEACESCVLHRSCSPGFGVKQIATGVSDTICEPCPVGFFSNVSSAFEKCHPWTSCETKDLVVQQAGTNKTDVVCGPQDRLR
T6 sequence (P25942 21-277 limits assumed): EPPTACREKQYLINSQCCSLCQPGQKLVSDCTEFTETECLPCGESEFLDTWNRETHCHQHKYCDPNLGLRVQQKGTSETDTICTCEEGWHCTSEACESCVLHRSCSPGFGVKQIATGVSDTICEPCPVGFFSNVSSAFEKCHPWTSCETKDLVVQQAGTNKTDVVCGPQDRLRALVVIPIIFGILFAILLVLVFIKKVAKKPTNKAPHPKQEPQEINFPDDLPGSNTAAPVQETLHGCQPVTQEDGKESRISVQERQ

B1: anti-CD40 antibody (1C10 mIgG1) (antibody, V domains shown)
VH: EVQLVESGGGLVQPGRSLKLSCAASGFTFSNYDMAWVRQAPTKGLEWVASISPSGGRTYYRDSVKGRFTVSRDNAKSTLYLQMDSLRSEDTATYYCARHDGSYFDYWGQGVMVTVSS
VL: DTVLTQSPALAVSPGERVTISCRASESVSTLMHWYQQKPGQQPKLLIYLASHLESGVPARFSGSGSGTDFTLTIDPVEADDTATYYCQESWNDPWTFGGGTKLELK
notes: murine IgG1
Take B1: the EC50 (usually the concentration that produces a half-maximal response) with mouse CD40 [1] came to 0.21 µg/mL.

B2: CF1 (bispecific antibody, human IgG1, lambda)
heavy: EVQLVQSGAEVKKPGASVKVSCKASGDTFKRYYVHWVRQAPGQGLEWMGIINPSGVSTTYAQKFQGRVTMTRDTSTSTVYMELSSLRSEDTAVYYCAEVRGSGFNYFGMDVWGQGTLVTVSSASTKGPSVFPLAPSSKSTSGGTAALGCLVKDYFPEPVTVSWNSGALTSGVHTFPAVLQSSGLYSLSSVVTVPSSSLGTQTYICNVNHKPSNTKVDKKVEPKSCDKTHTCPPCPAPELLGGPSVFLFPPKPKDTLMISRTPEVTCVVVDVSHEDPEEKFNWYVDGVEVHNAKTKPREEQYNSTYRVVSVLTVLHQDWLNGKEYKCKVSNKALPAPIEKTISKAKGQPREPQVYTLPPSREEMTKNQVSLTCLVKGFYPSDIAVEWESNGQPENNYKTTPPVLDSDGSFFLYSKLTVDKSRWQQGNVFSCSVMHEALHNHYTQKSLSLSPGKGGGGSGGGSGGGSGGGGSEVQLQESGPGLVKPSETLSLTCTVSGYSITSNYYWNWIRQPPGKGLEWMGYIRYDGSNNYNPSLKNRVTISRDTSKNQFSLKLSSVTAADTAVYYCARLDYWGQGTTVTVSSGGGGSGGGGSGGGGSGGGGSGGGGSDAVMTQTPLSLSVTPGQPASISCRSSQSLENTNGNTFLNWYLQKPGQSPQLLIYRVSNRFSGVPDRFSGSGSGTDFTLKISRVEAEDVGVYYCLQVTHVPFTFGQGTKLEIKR
light: SYELTQPPSVSVSPGQTASITCSGDKLGDKYASWYQQKPGQSPVLVIYQDNRRPSGIPERFSGSNSGNTATLTISGTQAMDEADYYCQAWDSDTYVFGTGTKVTVLGQPKAAPSVTLFPPSSEELQANKATLVCLISDFYPGAVTVAWKADSSPVKAGVETTTPSKQSNNKYAASSYLSLTPEQWKSHRSYSCQVTHEGSTVEKTVAPTECS
notes: IgG-scFv: HuAM15 Fab, IgG1 V273E, CD40 scFv
As for B2, the Kd (commonly the constant that tells how readily two partners part at equilibrium) in test [2] was less than 400 nM; with cynomolgus mesothelin [3], no more than 0.29 nM; in [4], less than 150 nM; with human mesothelin [5] it was less than 400 nM; in test [6], 390 nM; with human mesothelin [7] it was 0.47 nM. For the same molecule, the Kd came to 0.23 nM with cynomolgus mesothelin [8] and 150 nM in [9]. The koff – broadly, the first-order rate constant of dissociation – is 0.26 s⁻¹ in [6], 2.4e-05 s⁻¹ in the test with human mesothelin [7] and 7.1e-05 s⁻¹ with cynomolgus mesothelin [8]. For the same molecule, the kon (as a rule, the rate constant with which the complex forms) in test [6] was 680000 M⁻¹ s⁻¹; with human mesothelin [7], 52000 M⁻¹ s⁻¹; in the test with cynomolgus mesothelin [8], 310000 M⁻¹ s⁻¹. Also, the “Max. IL-12p70, dendritic cells with cell-surface mesothelin” value in test [10] was 100 pg/mL.

B3: CF3 (bispecific antibody, human IgG1, lambda)
heavy: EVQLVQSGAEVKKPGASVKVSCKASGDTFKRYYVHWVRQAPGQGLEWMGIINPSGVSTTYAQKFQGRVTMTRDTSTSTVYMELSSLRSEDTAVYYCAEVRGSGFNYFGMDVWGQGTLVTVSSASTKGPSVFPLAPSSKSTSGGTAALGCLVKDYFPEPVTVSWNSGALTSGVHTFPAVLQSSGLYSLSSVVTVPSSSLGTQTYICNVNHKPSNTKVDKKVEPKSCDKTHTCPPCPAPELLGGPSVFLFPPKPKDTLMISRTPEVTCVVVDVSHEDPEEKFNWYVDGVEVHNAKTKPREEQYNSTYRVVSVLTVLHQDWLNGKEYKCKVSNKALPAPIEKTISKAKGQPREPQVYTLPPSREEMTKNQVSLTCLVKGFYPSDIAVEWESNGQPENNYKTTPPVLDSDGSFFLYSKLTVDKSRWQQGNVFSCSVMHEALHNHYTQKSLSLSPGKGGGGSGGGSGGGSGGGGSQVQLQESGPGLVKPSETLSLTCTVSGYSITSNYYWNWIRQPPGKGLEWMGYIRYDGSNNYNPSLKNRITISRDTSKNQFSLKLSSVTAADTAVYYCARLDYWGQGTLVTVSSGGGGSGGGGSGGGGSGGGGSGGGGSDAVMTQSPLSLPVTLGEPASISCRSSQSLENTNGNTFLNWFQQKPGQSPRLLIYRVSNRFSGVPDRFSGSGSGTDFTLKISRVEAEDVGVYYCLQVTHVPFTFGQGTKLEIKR
light: B2 light
notes: IgG-scFv
Turning to B3, the Kd in test [2] is less than 400 nM; with cynomolgus mesothelin [3] it was no more than 0.29 nM; in test [4] it was less than 150 nM; with human mesothelin [5], less than 400 nM; in [6] it was 14 nM; in the test with human mesothelin [7], 0.59 nM. The Kd with cynomolgus mesothelin [8] is 0.29 nM; in test [11], 8.3 nM. Moreover, the koff in test [6] was determined as 0.0096 s⁻¹; in the test with human mesothelin [7] it was 3.1e-05 s⁻¹; with cynomolgus mesothelin [8], 8.2e-05 s⁻¹; in test [11] it was 0.011 s⁻¹. The kon in [6] was 690000 M⁻¹ s⁻¹; with human mesothelin [7], 52000 M⁻¹ s⁻¹; with cynomolgus mesothelin [8] it was 280000 M⁻¹ s⁻¹; in test [11] it was 1.3e+06 M⁻¹ s⁻¹. In addition, the “Max. IL-12p70, dendritic cells with cell-surface mesothelin” value in test [10] amounted to 75 pg/mL.

B4: huAb9 A2I (antibody, human IgG1, kappa)
heavy: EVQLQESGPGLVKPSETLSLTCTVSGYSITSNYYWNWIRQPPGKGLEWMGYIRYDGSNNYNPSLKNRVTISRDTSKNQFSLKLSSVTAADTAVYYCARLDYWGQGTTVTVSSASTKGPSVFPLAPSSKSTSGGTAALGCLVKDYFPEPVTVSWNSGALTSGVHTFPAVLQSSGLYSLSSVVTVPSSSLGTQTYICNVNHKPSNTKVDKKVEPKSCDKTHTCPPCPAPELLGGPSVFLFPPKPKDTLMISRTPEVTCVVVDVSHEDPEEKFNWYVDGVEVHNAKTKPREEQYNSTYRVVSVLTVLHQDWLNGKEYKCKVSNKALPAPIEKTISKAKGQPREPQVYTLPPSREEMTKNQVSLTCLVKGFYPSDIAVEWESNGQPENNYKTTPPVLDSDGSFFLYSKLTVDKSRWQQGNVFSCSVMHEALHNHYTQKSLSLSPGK
light: DIVMTQTPLSLSVTPGQPASISCRSSQSLENTNGNTFLNWYLQKPGQSPQLLIYRVSNRFSGVPDRFSGSGSGTDFTLKISRVEAEDVGVYYCLQVTHVPFTFGQGTKLEIKRTVAAPSVFIFPPSDEQLKSGTASVVCLLNNFYPREAKVQWKVDNALQSGNSQESVTEQDSKDSTYSLSSTLTLSKADYEKHKVYACEVTHQGLSSPVTKSFNRGEC
notes: human IgG1 V273E
Regarding B4, in [12], the “B-cell CD23 EC50, +MSLN” value worked out at 2.5 nM; the “B-cell CD23 EC50, -MSLN” value stood at 1.4 nM; the “B-cell CD86 EC50, +MSLN” value was 0.7 nM; the “B-cell CD86 EC50, -MSLN” value turned out to be 0.35 nM. In test [12], the “B-cell proliferation EC50, +MSLN” value amounted to 12 nM; the “B-cell proliferation EC50, -MSLN” value amounted to 4.5 nM; the “moDC CD83 EC50, +MSLN” value was 6.9 nM; the “moDC CD83 EC50, -MSLN” value came to 2 nM. In addition, in [12], the “moDC IL-12p70 EC50, +MSLN” value was determined as 3.4 nM and the “moDC IL-12p70 EC50, -MSLN” value worked out at 12.4 nM. Besides, the EC50 in [13] turned out to be 4.1 nM.

B5: LB-1 (bispecific antibody, mouse IgG1)
chain: EVQLVESGGGLVQPGRSLKLSCAASGFTFSNYDMAWVRQAPTKGLEWVASISPSGGRTYYRDSVKGRFTVSRDNAKSTLYLQMDSLRSEDTATYYCARHDGSYFDYWGQGVMVTVSSDLSGGGGSGGGGSGGGGSGGGGSTGDTVLTQSPALAVSPGERVTISCRASESVSTLMHWYQQKPGQQPKLLIYLASHLESGVPARFSGSGSGTDFTLTIDPVEADDTATYYCQESWNDPWTFGGGTKLELKRLEVPRDSGSKPCICTVPEVSSVFIFPPKPKDVLTITLTPKVTCVVVDISKDDPEVQFSWFVDDVEVHTAQTQPREEQFNSTFRSVSELPIMHQDWLNGKEFKCRVNSAAFPAPIEKTISKTKGRPKAPQVYTIPPPKEQMAKDKVSLTCMITDFFPEDITVEWQWNGQPAENYKNTQPIMDTDGSYFVYSKLNVQKSNWEAGNTFTCSVLHEGLHNHHTEKSLSHSPGKVDGASSPVNVSSPSVQDIQVQLVQSGAEVKKPGASVKVSCKASGYTFTGNYINWVRQAPGQGLEWMGIINPTKGWTLYAQKFQGRVTMTRDTSISTAYMELSSLRSEDTAVYYCARWHHGTWIFDYWGQGTLVTVSSDLSGGGGSGGGGSGGGGSGGGGSTGDIVLTQPPSVSGAPGQRVTISCSGSSSNIGSNYVSWYQQLPGTAPKLLIYNDNQRPSGVPDRFSGSKSGTSASLAITGLQSEDEADYYCSTYDRRTFSVFGGGTKLTVLG
notes: 1C10 scFv (VH→VL), murine IgG1 hinge-CH2-CH3, MOR06626 scFv (VH→VL); also called mouse bispecific formula (I) protein LB-1
For B5, the EC50 came out at 2.75 µg/mL in the test with mouse CD40 [1] and 1.39 µg/mL with MSLN (Table 10-1).

B6: huAb8-2 (antibody, human IgG1, V domains shown)
VH: EVQLVQSGAEVKKPGSSVKVSCKASGYTFTDYYINWVRQAPGQGLEWIGWIFPGSGSVYSNEQFKGRATLTVDRSTSTAYMELSSLRSEDTAVYFCASSLGKFAYWGQGTLVTVSS
VL: DIQMTQSPSSLSASVGDRVTITCKASQSVVTAVAWYQQKPGKSPKLLIYSASNRYTGVPSRFSGSGSGTDFTLTISSLQPEDFATYFCQQYSSYPYTFGGGTKVEIK
notes: human IgG1, kappa
Regarding B6, the binding result with mouse CD40 [14] was “no binding”; in the test with dog CD40, “no binding”; in test [15], “binds”.
